Results taken from patent US20250043302A1, “MUTATED HYDROXYPHENYLPYRUVATE DIOXYGENASE POLYPEPTIDE, AND CODING GENE AND USE THEREOF” (BEIJING DABEINONG BIOTECHNOLOGY CO., LTD., priority 2021, published 2025).

Tests used:
Format in all cases: in vivo
[1] = tested on: Arabidopsis thaliana T1 plants; assay: Mesotrione tolerance of transgenic Arabidopsis thaliana T1 plants (spray, bleached leaf area grade, damage score); set-up: Scores: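 damage score 0-100 computed as Σ(N×S)/(T×M)×100 over grades 0-3 with higher meaning more damage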; conditions: for Grade 0 (classification and statistics of the grade of pesticide damage; number of plants) / Grade 1 (classification and statistics of the grade of pesticide damage; number of plants) / Grade 2 (classification and statistics of the grade of pesticide damage; number of plants) / Grade 3 (classification and statistics of the grade of pesticide damage; number of plants): 16 plants; for Classification and statistics of the grade of pesticide damage Grade 0 / Classification and statistics of the grade of pesticide damage Grade 1 / Classification and statistics of the grade of pesticide damage Grade 2 / Classification and statistics of the grade of pesticide damage Grade 3: number of plants in grade
Outline: (§1)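 Damage graded 0–3 from the proportion of bleached leaf area 7 days after spraying. Plants were glufosinate-selected T1 lines, 18 days after sowing, plus vector and wild-type controls. Rates: mesotrione 52.5–420, isoxaflutole 35–280, topramezone 25–200 g ai/ha, with water (0×).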

[2] = tested on: Arabidopsis thaliana T1 plants; assay: Isoxaflutole tolerance of transgenic Arabidopsis thaliana T1 plants (spray, bleached leaf area grade, damage score); set-up: Scores (pesticide damage): scale not given here; conditions: for Classification and statistics of the grade of pesticide damage: Grade 0 (number of plants) / Classification and statistics of the grade of pesticide damage: Grade 1 (number of plants) / Classification and statistics of the grade of pesticide damage: Grade 2 (number of plants) / Classification and statistics of the grade of pesticide damage: Grade 3 (number of plants): 16 plants; for Classification and statistics of the grade of pesticide damage Grade 0 / Classification and statistics of the grade of pesticide damage Grade 1 / Classification and statistics of the grade of pesticide damage Grade 2 / Classification and statistics of the grade of pesticide damage Grade 3: number of plants in grade
Outline: as §1

[3] = tested on: Arabidopsis thaliana T1 plants; assay: Topramezone tolerance of transgenic Arabidopsis thaliana T1 plants (spray, bleached leaf area grade, damage score); conditions: for Classification and statistics of the grade of pesticide damage Grade 0: number of plants at grade 0; for Classification and statistics of the grade of pesticide damage Grade 1: number of plants at grade 1; for Classification and statistics of the grade of pesticide damage Grade 2: number of plants at grade 2; for Classification and statistics of the grade of pesticide damage Grade 3: number of plants at grade 3; for Classification and statistics of the grade of pesticide damage: Grade 0 / Classification and statistics of the grade of pesticide damage: Grade 1 / Classification and statistics of the grade of pesticide damage: Grade 2 / Classification and statistics of the grade of pesticide damage: Grade 3: number of plants
Outline: as §1

[4] = mesotrione 52.5 g ai/ha, Arabidopsis thaliana T1 plants
[5] = mesotrione 105 g ai/ha, Arabidopsis thaliana T1 plants
[6] = isoxaflutole 35 g ai/ha (0.5x field concentration), spray, Arabidopsis thaliana T1 plants
[7] = isoxaflutole 70 g ai/ha (1x field concentration), spray, Arabidopsis thaliana T1 plants
[8] = Table 13, topramezone 25 g ai/ha (1×)
[9] = Table 13, topramezone 100 g ai/ha (4×)
[10] = topramezone 25 g ai/ha (1×), 7 DAT, Table 4
[11] = topramezone 100 g ai/ha (4×), 7 DAT, Table 4

B1: AtHPPDm-F372A-02: nucleotide sequence encoding Arabidopsis thaliana HPPD with F372A; vector DBN11731 (nucleic acid)
DNA: ATGGGACATCAGAATGCTGCTGTATCAGAAAATCAAAATCATGATGATGGAGCCGCCTCCTCACCAGGGTTTAAGTTGGTTGGGTTCTCCAAGTTTGTACGGAAGAACCCAAAATCCGACAAGTTCAAGGTTAAACGCTTCCACCACATTGAATTCTGGTGCGGCGACGCCACCAATGTTGCTCGGCGTTTTTCATGGGGTTTAGGCATGAGATTCTCAGCAAAGAGTGACCTGAGCACCGGCAACATGGTTCATGCTAGCTATCTCTTAACATCTGGAGATTTGAGGTTTCTTTTCACGGCGCCGTACTCACCATCACTCTCCGCCGGCGAGATCAAACCCACCACGACTGCAAGCATACCTTCATTTGATCATGGTAGTTGCAGATCCTTCTTCTCGTCGCACGGCCTAGGGGTGCGCGCGGTCGCCATCGAAGTTGAAGATGCAGAATCAGCGTTTAGTATCAGCGTGGCAAATGGAGCTATTCCTTCCTCCCCTCCAATTGTCCTCAATGAGGCTGTAACTATTGCCGAGGTGAAGTTGTATGGAGATGTTGTGCTGAGATATGTTTCTTACAAGGCAGAGGACACTGAGAAATCTGAATTTTTGCCTGGTTTTGAAAGGGTCGAGGATGCTTCAAGTTTTCCTCTTGATTACGGCATACGACGGTTGGATCACGCGGTTGGAAATGTACCAGAACTTGGGCCGGCGCTCACTTATGTGGCTGGTTTCACTGGATTCCATCAATTTGCTGAGTTCACAGCTGATGATGTTGGGACTGCTGAAAGTGGGTTGAACTCTGCAGTCCTCGCCTCTAATGATGAAATGGTGCTCCTCCCGATCAACGAGCCTGTGCATGGCACCAAAAGGAAATCACAAATACAGACATATCTTGAGCACAATGAAGGTGCAGGGCTTCAACATCTTGCACTGATGTCTGAAGACATTTTCCGTACGCTGAGAGAGATGAGGAAGAGAAGTAGTATTGGTGGATTTGACTTCATGCCTTCTCCCCCACCAACTTACTACCAGAACTTGAAGAAGAGGGTTGGTGATGTGCTATCTGATGACCAGATCAAGGAGTGTGAAGAATTGGGCATTCTTGTTGATCGGGACGACCAAGGAACATTACTGCAGATAGCCACAAAACCACTTGGTGACCGCCCCACTATTTTTATTGAGATCATACAAAGAGTCGGCTGCATGATGAAGGATGAGGAAGGAAAAGCATATCAATCTGGTGGTTGTGGCGGCTTTGGGAAAGGAAACTTCTCTGAGCTGTTCAAATCCATCGAGGAGTATGAGAAGACCTTGGAGGCCAAGCAGCTCGTGGGTTGA
modifications: AtHPPDm-F372A-02 Nucleotide Sequence
notes: vector DBN11731
Resistance evaluation ([1]; mesotrione 52.5 g ai/ha): Poorly resistant
Scores ([1]; mesotrione 52.5 g ai/ha): 63
Resistance evaluation [1, 4]: Poorly resistant
Scores [1, 4]: 63
Grade 0 (classification and statistics of the grade of pesticide damage; number of plants) [1, 4]: 0
Grade 1 (classification and statistics of the grade of pesticide damage; number of plants) [1, 4]: 5
Grade 2 (classification and statistics of the grade of pesticide damage; number of plants) [1, 4]: 8
Grade 3 (classification and statistics of the grade of pesticide damage; number of plants) [1, 4]: 3
Classification and statistics of the grade of pesticide damage Grade 0 ([1]; mesotrione 52.5 g ai/ha): 0
Classification and statistics of the grade of pesticide damage Grade 1 ([1]; mesotrione 52.5 g ai/ha): 5
Classification and statistics of the grade of pesticide damage Grade 2 ([1]; mesotrione 52.5 g ai/ha): 8
Classification and statistics of the grade of pesticide damage Grade 3 ([1]; mesotrione 52.5 g ai/ha): 3
Resistance evaluation ([1]; mesotrione 105 g ai/ha): Non-resistant
Scores ([1]; mesotrione 105 g ai/ha): 100
Resistance evaluation [1, 5]: Non-resistant
Scores [1, 5]: 100
Grade 0 (classification and statistics of the grade of pesticide damage; number of plants) [1, 5]: 0
Grade 1 (classification and statistics of the grade of pesticide damage; number of plants) [1, 5]: 0
Grade 2 (classification and statistics of the grade of pesticide damage; number of plants) [1, 5]: 0
Grade 3 (classification and statistics of the grade of pesticide damage; number of plants) [1, 5]: 16
Classification and statistics of the grade of pesticide damage Grade 0 ([1]; mesotrione 105 g ai/ha): 0
Classification and statistics of the grade of pesticide damage Grade 1 ([1]; mesotrione 105 g ai/ha): 0
Classification and statistics of the grade of pesticide damage Grade 2 ([1]; mesotrione 105 g ai/ha): 0
Classification and statistics of the grade of pesticide damage Grade 3 ([1]; mesotrione 105 g ai/ha): 16
Resistance evaluation ([2]; isoxaflutole 35 g ai/ha): Poorly
Scores ([2]; isoxaflutole 35 g ai/ha): 52
Resistance evaluation [2, 6]: Poorly
Scores (pesticide damage) [2, 6]: 52
Classification and statistics of the grade of pesticide damage: Grade 0 (number of plants) [2, 6]: 0
Classification and statistics of the grade of pesticide damage: Grade 1 (number of plants) [2, 6]: 9
Classification and statistics of the grade of pesticide damage: Grade 2 (number of plants) [2, 6]: 5
Classification and statistics of the grade of pesticide damage: Grade 3 (number of plants) [2, 6]: 2
Classification and statistics of the grade of pesticide damage Grade 0 ([2]; isoxaflutole 35 g ai/ha): 0
Classification and statistics of the grade of pesticide damage Grade 1 ([2]; isoxaflutole 35 g ai/ha): 9
Classification and statistics of the grade of pesticide damage Grade 2 ([2]; isoxaflutole 35 g ai/ha): 5
Classification and statistics of the grade of pesticide damage Grade 3 ([2]; isoxaflutole 35 g ai/ha): 2
Resistance evaluation ([2]; isoxaflutole 70 g ai/ha): Non-resistant
Scores ([2]; isoxaflutole 70 g ai/ha): 96
Resistance evaluation [2, 7]: Non-resistant
Scores (pesticide damage) [2, 7]: 96
Classification and statistics of the grade of pesticide damage: Grade 0 (number of plants) [2, 7]: 0
Classification and statistics of the grade of pesticide damage: Grade 1 (number of plants) [2, 7]: 0
Classification and statistics of the grade of pesticide damage: Grade 2 (number of plants) [2, 7]: 2
Classification and statistics of the grade of pesticide damage: Grade 3 (number of plants) [2, 7]: 14
Classification and statistics of the grade of pesticide damage Grade 0 ([2]; isoxaflutole 70 g ai/ha): 0
Classification and statistics of the grade of pesticide damage Grade 1 ([2]; isoxaflutole 70 g ai/ha): 0
Classification and statistics of the grade of pesticide damage Grade 2 ([2]; isoxaflutole 70 g ai/ha): 2
Classification and statistics of the grade of pesticide damage Grade 3 ([2]; isoxaflutole 70 g ai/ha): 14
Resistance evaluation [3, 8]: Poorly
Classification and statistics of the grade of pesticide damage Grade 0 [3, 8]: 4
Classification and statistics of the grade of pesticide damage Grade 1 [3, 8]: 4
Classification and statistics of the grade of pesticide damage Grade 2 [3, 8]: 8
Classification and statistics of the grade of pesticide damage Grade 3 [3, 8]: 0
Scores ([3]; Table 13, topramezone 25 g ai/ha (1×), pesticide damage score): 42
Resistance evaluation [3, 9]: Non-resistant
Classification and statistics of the grade of pesticide damage Grade 0 [3, 9]: 0
Classification and statistics of the grade of pesticide damage Grade 1 [3, 9]: 0
Classification and statistics of the grade of pesticide damage Grade 2 [3, 9]: 4
Classification and statistics of the grade of pesticide damage Grade 3 [3, 9]: 12
Scores ([3]; Table 13, topramezone 100 g ai/ha (4×), pesticide damage score): 92
Classification and statistics of the grade of pesticide damage: Grade 0 [3, 10]: 4
Classification and statistics of the grade of pesticide damage: Grade 1 [3, 10]: 4
Classification and statistics of the grade of pesticide damage: Grade 2 [3, 10]: 8
Classification and statistics of the grade of pesticide damage: Grade 3 [3, 10]: 0
Classification and statistics of the grade of pesticide damage: Grade 0 [3, 11]: 0
Classification and statistics of the grade of pesticide damage: Grade 1 [3, 11]: 0
Classification and statistics of the grade of pesticide damage: Grade 2 [3, 11]: 4
Classification and statistics of the grade of pesticide damage: Grade 3 [3, 11]: 12
Scores ([3]; pesticide damage score 0-100, topramezone 25 g ai/ha (1×), 7 DAT, Table 4): 42
Scores ([3]; pesticide damage score 0-100, topramezone 100 g ai/ha (4×), 7 DAT, Table 4): 92
Resistance evaluation [3, 10]: poorly
Resistance evaluation [3, 11]: non-resistant (non-resistant plants (scores 68-100))
